Assay [1] has as its target Collagen type IV (CIV). The experiment in a line: cell-based or functional assay.
For assay [2], the target named is Mouse laminin (isolated from the EHS-sarcoma) (mouse) (UniProt P19137). The experiment in a line: cell-based or functional assay.
Assay [3] addresses Bovine serum albumin (BSA) (bovine) (UniProt P02769). The assay is described as follows: cell-based or functional assay.
Assay [4] addresses Collagen type IV (CIV). The experiment in a line: cell-based or functional assay. This is another data set of the same source.
In assay [5] the target is Ace of E. faecalis strain OG1RF (native; on 46°C grown cells and in mutanolysin extracts) (Enterococcus faecalis strain OG1RF). The experiment in a line: cell-based or functional assay.
Assay [6] deals with Ace of E. faecalis strain V583 (native; on cells and in mutanolysin extracts) (Enterococcus faecalis strain V583). The experiment in a line: cell-based or functional assay.
The target in assay [7] is Ace of E. faecalis strain MC02152 (native; on cells and in mutanolysin extracts) (Enterococcus faecalis strain MC02152). The experiment in a line: cell-based or functional assay.
Assay [8] has as its target Ace of E. faecalis strain OG1RF (native; on 46°C grown cells and in mutanolysin extracts) (Enterococcus faecalis strain OG1RF). The experiment in a line: cell-based or functional assay. The source holds these as a separate data set.
Assay [9] concerns the target Mouse laminin (isolated from the EHS-sarcoma) (mouse) (UniProt P19137). The assay is described as follows: ELISA, 10 µg immobilised LN, bound His-tagged Ace A detected with penta-His monoclonal antibody, OD450. (In general: An ELISA detects its analyte on a solid surface through an enzyme-linked reagent.)
Another assay addresses Collagen type I (CI). The experiment in a line: ELISA, 10 µg immobilised CI, bound His-tagged Ace A detected with penta-His monoclonal antibody, OD450.
Assay [10] deals with T1, Bovine Type I collagen (Collagen Corp.), immobilised on a CM5 chip (bovine, UniProt P02453 162-1217; P02465 80-1117).
T1 construct: Bought, predissolved in 0.1 M HCl
T1 sequence (P02453 162-1217 limits assumed, chain 1 of 2): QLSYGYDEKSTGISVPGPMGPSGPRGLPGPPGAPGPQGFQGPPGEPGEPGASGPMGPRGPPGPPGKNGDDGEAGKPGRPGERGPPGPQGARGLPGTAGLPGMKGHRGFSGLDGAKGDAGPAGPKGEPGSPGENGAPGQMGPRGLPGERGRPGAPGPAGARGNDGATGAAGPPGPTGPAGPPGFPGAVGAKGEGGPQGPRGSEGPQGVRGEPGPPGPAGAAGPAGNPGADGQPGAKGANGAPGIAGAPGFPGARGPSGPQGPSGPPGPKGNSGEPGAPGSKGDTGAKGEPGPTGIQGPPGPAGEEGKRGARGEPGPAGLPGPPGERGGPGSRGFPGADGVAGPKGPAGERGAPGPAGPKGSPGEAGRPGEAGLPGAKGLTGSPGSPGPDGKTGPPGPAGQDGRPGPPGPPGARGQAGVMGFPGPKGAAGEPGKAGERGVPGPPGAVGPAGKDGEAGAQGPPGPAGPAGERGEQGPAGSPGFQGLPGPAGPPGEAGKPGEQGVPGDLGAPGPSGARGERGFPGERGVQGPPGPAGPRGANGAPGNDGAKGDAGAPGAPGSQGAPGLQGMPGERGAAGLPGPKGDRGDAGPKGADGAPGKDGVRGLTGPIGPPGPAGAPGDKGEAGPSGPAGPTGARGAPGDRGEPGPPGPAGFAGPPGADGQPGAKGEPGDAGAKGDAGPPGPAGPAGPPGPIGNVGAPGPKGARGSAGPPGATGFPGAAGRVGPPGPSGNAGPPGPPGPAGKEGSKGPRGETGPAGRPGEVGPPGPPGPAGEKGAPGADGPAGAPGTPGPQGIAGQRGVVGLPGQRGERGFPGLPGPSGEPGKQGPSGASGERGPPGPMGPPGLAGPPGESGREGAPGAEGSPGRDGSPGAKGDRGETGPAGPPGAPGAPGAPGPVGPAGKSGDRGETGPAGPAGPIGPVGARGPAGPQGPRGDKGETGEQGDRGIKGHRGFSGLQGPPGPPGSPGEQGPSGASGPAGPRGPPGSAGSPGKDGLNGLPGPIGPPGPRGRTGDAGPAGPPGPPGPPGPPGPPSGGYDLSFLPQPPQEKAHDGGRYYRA
T1 sequence (P02465 80-1117 limits assumed, chain 2 of 2): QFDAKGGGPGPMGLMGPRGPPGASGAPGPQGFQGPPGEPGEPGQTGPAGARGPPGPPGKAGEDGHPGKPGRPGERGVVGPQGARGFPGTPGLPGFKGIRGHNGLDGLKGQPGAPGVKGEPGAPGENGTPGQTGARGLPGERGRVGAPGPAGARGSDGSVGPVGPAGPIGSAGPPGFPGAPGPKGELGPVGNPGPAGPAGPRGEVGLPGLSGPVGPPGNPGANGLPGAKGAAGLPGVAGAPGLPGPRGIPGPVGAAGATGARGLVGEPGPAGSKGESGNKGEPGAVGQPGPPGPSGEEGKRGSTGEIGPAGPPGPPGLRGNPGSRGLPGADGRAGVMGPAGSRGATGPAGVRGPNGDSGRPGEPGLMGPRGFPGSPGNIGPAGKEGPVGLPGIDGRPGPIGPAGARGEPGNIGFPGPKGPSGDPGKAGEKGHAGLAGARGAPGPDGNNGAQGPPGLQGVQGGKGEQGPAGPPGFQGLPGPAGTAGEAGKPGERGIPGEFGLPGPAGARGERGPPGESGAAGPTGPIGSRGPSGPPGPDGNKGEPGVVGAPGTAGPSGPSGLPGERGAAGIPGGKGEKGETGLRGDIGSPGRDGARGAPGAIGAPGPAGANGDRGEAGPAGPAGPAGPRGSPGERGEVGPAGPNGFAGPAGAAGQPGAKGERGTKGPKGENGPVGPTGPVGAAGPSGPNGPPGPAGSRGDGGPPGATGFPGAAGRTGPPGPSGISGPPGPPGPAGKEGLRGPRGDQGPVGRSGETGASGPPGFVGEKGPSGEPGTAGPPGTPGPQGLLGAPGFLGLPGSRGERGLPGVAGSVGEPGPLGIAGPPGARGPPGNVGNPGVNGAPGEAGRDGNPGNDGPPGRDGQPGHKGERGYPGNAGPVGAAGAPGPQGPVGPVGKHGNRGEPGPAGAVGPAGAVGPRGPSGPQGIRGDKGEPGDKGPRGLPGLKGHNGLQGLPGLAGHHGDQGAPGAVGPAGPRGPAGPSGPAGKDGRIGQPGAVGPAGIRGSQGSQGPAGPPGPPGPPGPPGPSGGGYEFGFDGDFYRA
The assay is described as follows: SPR (BIAcore 1000), Scatchard analysis of equilibrium responses, 1-70 µM Ace A over immobilised collagen; three measurements. (In SPR one partner is held on a chip, and binding of the other changes the refractive index at the surface.)

Assay [11] has as its target Mouse laminin (isolated from the EHS-sarcoma) (mouse, UniProt P19137 25-3083; P02469 22-1786; P02468 34-1607). The assay is described as follows: cell-based or functional assay.

Where two headings read alike, the source gives them in different places.

Bovine serum albumin (BSA) (bovine), sequence (P02769 25-607 limits assumed): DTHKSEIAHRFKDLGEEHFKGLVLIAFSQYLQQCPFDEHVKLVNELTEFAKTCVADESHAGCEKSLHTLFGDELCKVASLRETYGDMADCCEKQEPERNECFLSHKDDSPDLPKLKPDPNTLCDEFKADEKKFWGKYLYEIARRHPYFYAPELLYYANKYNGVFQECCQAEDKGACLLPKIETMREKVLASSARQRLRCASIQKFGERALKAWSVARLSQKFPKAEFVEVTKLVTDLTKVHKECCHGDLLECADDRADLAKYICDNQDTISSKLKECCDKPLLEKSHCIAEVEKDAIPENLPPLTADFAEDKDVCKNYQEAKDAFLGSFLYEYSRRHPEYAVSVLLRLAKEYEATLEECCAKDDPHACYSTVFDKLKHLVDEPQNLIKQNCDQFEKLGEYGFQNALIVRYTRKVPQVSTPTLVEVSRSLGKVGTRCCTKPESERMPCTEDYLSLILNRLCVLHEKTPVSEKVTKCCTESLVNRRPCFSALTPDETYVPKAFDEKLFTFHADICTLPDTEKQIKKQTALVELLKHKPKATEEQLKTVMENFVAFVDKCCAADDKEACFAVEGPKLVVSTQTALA

As for “Ace of E. faecalis strain END6 (mutanolysin extract)”, the % adherence of 46°C grown END6 to CIV with Collagen type IV (CIV) [1] was greater than 20%. The same molecule returned a % adherence of 46°C grown END6 to LN in assay [2] greater than 20%.
Turning to “Ace of E. faecalis strain JH2-2 (mutanolysin extract)”, the % adherence of 46°C grown JH2-2 to CIV with Collagen type IV (CIV) [1] is greater than 20%. In assay [2], this molecule yielded a % adherence of 46°C grown JH2-2 to LN greater than 20%.
As to “Ace of E. faecalis strain MC02152 (native; on cells and in mutanolysin extracts)”, in the assay with Collagen type IV (CIV) [1], the % adherence of 46°C grown MC02152 to CIV is greater than 20%, the % of 37°C grown MC02152 cells bound to CIV worked out at 8.9%, the % of 46°C grown MC02152 cells bound to CIV was 38% and the % of MC02152 cells bound to CIV; no IgG (% of cells bound) was 27.7. For the same molecule, in [2], the % adherence of 46°C grown MC02152 to LN is greater than 20%, the % of 37°C grown MC02152 cells bound to LN was determined as 7.1%, the % of 46°C grown MC02152 cells bound to LN worked out at 41% and the % of MC02152 cells bound to LN; no IgG (% of cells bound) amounted to 26.7. Besides, the % of MC02152 cells bound to BSA; no IgG (% of cells bound) in [3] was 0.6.
For the molecule “Ace of E. faecalis strain MD9 (mutanolysin extract)”, in the assay with Collagen type IV (CIV) [1], the % adherence of 46°C grown MD9 to CIV was greater than 20%. The same molecule yielded a % adherence of 46°C grown MD9 to LN in [2] greater than 20%.
In the assay with Collagen type IV (CIV) [1], “Ace of E. faecalis strain OG1RF (native; on 46°C grown cells and in mutanolysin extracts)” gave a % of OG1RF cells bound to CIV; no IgG (% of cells bound) of 27.7 and a fold decrease of adherence to CIV in ace mutant TX5256 against OG1RF of 27.4 fold. In the assay with Collagen type IV (CIV) [4], this molecule registered a % of OG1RF cells bound to CIV; no IgG (% of cells bound) of 29.6.
Take “Ace of E. faecalis strain V583 (native; on cells and in mutanolysin extracts)”: in the assay with Collagen type IV (CIV) [1], the % adherence of 46°C grown V583 to CIV is greater than 20% and the % of V583 cells bound to CIV; no IgG (% of cells bound) is 38.1. In [2], this molecule displayed a % adherence of 46°C grown V583 to LN greater than 20% and a % of V583 cells bound to LN; no IgG (% of cells bound) of 29.4. For the same molecule, in assay [3], the % of V583 cells bound to BSA; no IgG (% of cells bound) came out at 0.7.
In [5], “IgGs purified from pooled normal human sera collected from healthy volunteers (antibody)” yielded a % of OG1RF cells bound to BSA; NHS IgG 0.1 mg/ml (% of cells bound) of 0.9, a % of OG1RF cells bound to BSA; NHS IgG 1 mg/ml (% of cells bound) of 0.7, a % of OG1RF cells bound to BSA; NHS IgG 2 mg/ml (% of cells bound) of 0.7 and a % of OG1RF cells bound to BSA; NHS IgG 4 mg/ml (% of cells bound) of 0.8. Further, in [5], the % of OG1RF cells bound to CIV; NHS IgG 0.1 mg/ml (% of cells bound) was determined as 24.8, the % of OG1RF cells bound to CIV; NHS IgG 1 mg/ml (% of cells bound) came to 25.6, the % of OG1RF cells bound to CIV; NHS IgG 2 mg/ml (% of cells bound) amounted to 24 and the % of OG1RF cells bound to CIV; NHS IgG 4 mg/ml (% of cells bound) came to 25.6. For the same molecule, in assay [5], the % of OG1RF cells bound to LN; NHS IgG 0.1 mg/ml (% of cells bound) was 31.5, the % of OG1RF cells bound to LN; NHS IgG 1 mg/ml (% of cells bound) came out at 31.3, the % of OG1RF cells bound to LN; NHS IgG 2 mg/ml (% of cells bound) stood at 31.3 and the % of OG1RF cells bound to LN; NHS IgG 4 mg/ml (% of cells bound) turned out to be 31.4.
In assay [6], “Preimmune rabbit serum and IgGs purified from it (Example 2) (antibody)” came in with a % of V583 cells bound to BSA; PI IgG 20 µg/ml (% of cells bound) of 0.6, a % of V583 cells bound to CIV; PI IgG 20 µg/ml (% of cells bound) of 33.6 and a % of V583 cells bound to LN; PI IgG 20 µg/ml (% of cells bound) of 27.6. In assay [7], this molecule showed a % of MC02152 cells bound to BSA; PI IgG 20 µg/ml (% of cells bound) of 0.5, a % of MC02152 cells bound to CIV; PI IgG 20 µg/ml (% of cells bound) of 26.5 and a % of MC02152 cells bound to LN; PI IgG 20 µg/ml (% of cells bound) of 23.5. For the same molecule, in assay [8], the % of OG1RF cells bound to BSA; PI IgG 0.001 µg/ml (% of cells bound) turned out to be 0.7, the % of OG1RF cells bound to BSA; PI IgG 0.01 µg/ml (% of cells bound) amounted to 0.1, the % of OG1RF cells bound to BSA; PI IgG 0.1 µg/ml (% of cells bound) amounted to 0.6 and the % of OG1RF cells bound to BSA; PI IgG 1 µg/ml (% of cells bound) was 0.8. Further, in [8], the % of OG1RF cells bound to BSA; PI IgG 10 µg/ml (% of cells bound) amounted to 0.6, the % of OG1RF cells bound to BSA; PI IgG 100 µg/ml (% of cells bound) amounted to 0.6, the % of OG1RF cells bound to CIV; PI IgG 0.001 µg/ml (% of cells bound) is 30.3 and the % of OG1RF cells bound to CIV; PI IgG 0.01 µg/ml (% of cells bound) turned out to be 28.8. In assay [8], the % of OG1RF cells bound to CIV; PI IgG 0.1 µg/ml (% of cells bound) worked out at 28.9, the % of OG1RF cells bound to CIV; PI IgG 1 µg/ml (% of cells bound) was 25.9, the % of OG1RF cells bound to CIV; PI IgG 10 µg/ml (% of cells bound) was 26.6 and the % of OG1RF cells bound to CIV; PI IgG 100 µg/ml (% of cells bound) was 26. In assay [8], this molecule yielded a % of OG1RF cells bound to LN; PI IgG 0.001 µg/ml (% of cells bound) of 30.2, a % of OG1RF cells bound to LN; PI IgG 0.01 µg/ml (% of cells bound) of 31.4, a % of OG1RF cells bound to LN; PI IgG 0.1 µg/ml (% of cells bound) of 29.1 and a % of OG1RF cells bound to LN; PI IgG 1 µg/ml (% of cells bound) of 26.4. In addition, in [8], the % of OG1RF cells bound to LN; PI IgG 10 µg/ml (% of cells bound) is 28.3 and the % of OG1RF cells bound to LN; PI IgG 100 µg/ml (% of cells bound) is 32.
The term EC50 (read off the curve) denotes the concentration at which the effect is half-maximal. A low value points to higher potency in that assay. As for “Recombinant Ace A domain of E. faecalis OG1RF (His-tagged, pBAD/HisA, TX5254)”, the EC50 (read off the curve) in assay [9] turned out to be 7 µM; in the assay with Collagen type I (CI), 10 µM.

B1: Recombinant E. faecalis EF1 Ace A domain (N-terminal His6-tag fusion, from pQE-30) (other)
chain: MRGSHHHHHHGSELSKSSIVDKVELDHTTLYQGEMTSIKVSFSDKENQKIKPGDTITLTLPDELVGMTENDGSPRKINLNGLGEVFIYKDHVVATFNEKVESLHNVNGHFSFGIKTLITNSSQPNVIETDFGTATATQRLTIEGVTNTETGQIERDYPFFYKVGDLAGESNQVRWFLNVNLNKSDVTEDISIADRQGSGQQLNKESFTFDIVNDKETKYISLAEFEQQGYGKIDFVTDNDFNLRFYRDKARFTSFIVRYTSTITEAGQHQATFENSYDINYQLNNQDATNEKNTSQVKNVFVEGEASGNQNVEMPTEESLDIPLETIEEWEPKTPTSEQATETSEKTD
notes: Residues 32-367 are counted from nucleotides 94-1101; also called recombinant Ace A domain
What is called Kd is the concentration at which binding is half-saturated. For B1, the affinity in assay [10], expressed as Kd, was 48 µM.

B2: Ace of E. faecalis strain OG1RF (native; on 46°C grown cells and in mutanolysin extracts) (other)
chain: ELSKSSIVDKVELDHTTLYQGEMTSIKVSFSDKENQKIKPGDTITLTLPDALVGMTENDGSPRKINLNGLGEVFIYKDHVVATFNEKVESLHNVNGHFSFGIKTLITNSSQPNVIETDFGTATATQRLTIEGVTNTETGQIERDYPFFYKVGDLAGESNQVRWFLNVNLNKSDVTEDISIADRQGSGQQLNKESFTFDIVNDKETKYISLAEFEQQGYGKIDFVTDNDFNLRFYRNKARFTSFIVRYTSTITEAGQHQATFENSYDINYQLNNQDATNEKNTSQVKNVFVEGEASGNQNVEMPTEESLDIPLETIDEWEPKTPTSEQATETSEKTGATETAESSQPEVHVSPTEEENPDEGGTLGTIEPIIPEKPSVTTEENGVTETAEGSQPEVHVSPTEEENPDESETLGTITPIIPEKPSVTTEENGVTETAEGSQPEVHVSPTEEENPDESETLGTITPIIPEKPSVTTEENGATETAESSQPEVHVSPAEEENPDESETLGTITPIIPEKPSVTTEENGTTETAESSQPEVHVSPTEEENLDESETLGTIEPIIPEKPSVTTEENGTTETAESSQPEVHVSPTKEITTTEKKQPSTETTVEKNKNVTSKNQPQILNAPLNTVKNEGSPQLAPQLLSEPIQKLNEANGQRELPKT
As for B2, the “fold decrease of adherence to LN in ace mutant TX5256 against OG1RF” value in assay [11] stood at 32.9 fold.

The values are drawn from patent US6908994 (TEXAS A AND M UNIVERSITY SYSTEM, dated 2005).
